Reference: paper PMC9989938 (Immunity, 2023)

B1: 230AL-37 IgG (antibody, V domains shown)
VH: QVQLVESGGGVVQPGGSLRLSCTASGLIFNKYGIYWVRQAPGKGLEWVAFIRYDGTNQFYADSVKGRFTISRDNSKNKVYLQMNSLRAEDTALYYCAKDRGSIIVFDHWGQGTLVTVSS
VL: EIVLTQSPATLSLSPGERVTLSCRASQAVGIYLAWYQQKPGQAPRLLIYHVSKRDTGVPDRFSGSGSGTDFTLTISSLEPEDFAVYYCQQHRNWPPITFGQGTRLEIK
B2: 230AL-37 scFv (scFv, V domains shown)
VH: B1 VH
VL: B1 VL
B3: 230AS-73 scFv (scFv, V domains shown)
VH: QVQLQQWGAGLLKPSETLSLTCAVSGASFSGYSWTWIRQSPGKGLEWIGEIDYRGSTNYNPSLKSRVTMSVDTPKNQFSLNLTSLTAADTAIYYCAKGYGGVTLVRGAKINWFDPWGQGTLVTVSS
VL: EIVLTQSPGTLSLSPGERATLSCRASQSVTSRYLAWYQQKPGQAPRLLIFGASSRATGIPDRFSGSGSGTDFTLTISRLEPEDFAVYFCQQYAKSPWTFGQGTKVEIK

Tests used:
[1] = target: Pfs230D1 G605S variant, 6xHis, from Expi293 cells (P. falciparum, UniProt P68874, G605S); assay: BLI
[2] = target: Pfs230D1 G605R variant, 6xHis, from Expi293 cells (P. falciparum, UniProt P68874, G605R); assay: BLI
[3] = target: Pfs230 domain 1 (Pfs230D1), wild-type, 6xHis, from Expi293 cells (P. falciparum, UniProt P68874); assay: BLI
[4] = target: Pfs230D1 D714N variant, 6xHis, from Expi293 cells (P. falciparum, UniProt P68874); assay: BLI
[5] = target: Pfs230D1D2 (first two 6-Cys domains of Pfs230), 6xHis (Plasmodium falciparum 3D7, UniProt P68874); assay: crystal structure
Biotinylated Pfs230D1 = Biotinylated Pfs230D1 (Plasmodium falciparum 3D7, UniProt P68874, biotin (site not stated)); assay: BLI

| Binder | Kd [1] | koff [1] | kon [1] | Kd [2] | koff [2] | kon [2] | Kd [3] | koff [3] | kon [3] | Kd [4] | koff [4] | kon [4] | binding result [5] | binding result (Biotinylated Pfs230D1) |
| --- | --- | --- | --- | --- | --- | --- | --- | --- | --- | --- | --- | --- | --- | --- |
| B1 | 0.65 nM | 0.000147 s⁻¹ | 214000 M⁻¹ s⁻¹ | 5.01 nM | 0.000426 s⁻¹ | 85100 M⁻¹ s⁻¹ | 0.34 nM | 0.000181 s⁻¹ | 538000 M⁻¹ s⁻¹ | 15 nM | 0.00422 s⁻¹ | 291000 M⁻¹ s⁻¹ |  |  |
| B2 |  |  |  |  |  |  |  |  |  |  |  |  | binds |  |
| B3 |  |  |  |  |  |  |  |  |  |  |  |  | binds | binds |
